Results published in EP2594588A1.

Target: ADM (agonist of the ADM-Bioassay, human or mouse not told)
Assay: cell-based or functional assay

## Non specific mouse IgG (antibody)
  Maximal inhibition of ADM bioactivity (ADM-Bioassay) (%): 0%
